Results: the supplement of paper PMC10724198
± gives the standard deviation of the averaged measurements.

These sequences were tested on Saccharomyces cerevisiae (assay: protein stability index of tFT-peptide fusion (C-terminal peptide) (PSI (0-1 scale)); higher = more stable (slower turnover)). Settings: genetic background: wild type; temperature: 30 C.
Protocol: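 Multiplexed protein stability (MPS) profiling in S. cerevisiae. Random 12-aa peptides (tFT-X12 library) are fused to the C-terminus of a sfGFP-mCherry tandem fluorescent timer, after mCherry and a GGGS linker. Cells are FACS-sorted into 8 mCherry/sfGFP bins and deep-sequenced. The protein stability index (PSI) is the read-weighted bin average, scaled from 0 (unstable) to 1 (stable). Only peptides with >10 reads are reported; cells were grown at 30 °C in SC-His with glucose.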
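Also: PSI is a weighted mean of sequencing reads over stability bins, variants kept only with over 10 reads, mCherry proximal and sfGFP distal, peptide attached via GGGS linker.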

Sequence | protein stability index
QVRCCQEYSSEE | 0.69 ± 0.026
PPPSPPPLPDPH | 0.697 ± 0.079
GFTQLQNERVDG | 0.785 ± 0.1
APILLFIEPLPP | 0.5631 ± 0.0037
CPFPSPTPPPPC | 0.726 ± 0.095
LPPGFPYLSQLP | 0.666 ± 0.052
GGKEEGAGRRGV | 0.69 ± 0.059
IEITERRQKKIQ | 0.699 ± 0.088
GEGRGDGEEGTG | 0.679 ± 0.035
STGMYFYTHYLL | 0.632 ± 0.024
HSSFCIVIRVSR | 0.5125 ± 0.001
KKKKKKNKKTKN | 0.711 ± 0.045
MAWTGIDAEVCV | 0.67 ± 0.028
PSLPPAYPSIAI | 0.737 ± 0.067
RIHQRTSLHKAH | 0.609 ± 0.13
VEQSYKESVNLD | 0.682 ± 0.017
SELVARGGGGGW | 0.728 ± 0.07
PTIKPSPRFPLS | 0.71 ± 0.021
LLKGPDLLGRAS | 0.721 ± 0.051
KKEEKKKNKNDR | 0.679 ± 0.027
LVGLCSVFPSLV | 0.716 ± 0.008
SFVGGKLRTEYS | 0.71 ± 0.068
LFSSPPSLPPPL | 0.739 ± 0.036
AWPGPKMCWVVK | 0.6294 ± 0.0023
HAQRTSSRRAKS | 0.711 ± 0.019

Sequence | protein stability index
FCCVAPLALPRM | 0.686 ± 0.013
AGWCWVWGVELV | 0.687 ± 0.04
APRPRHFPTLPS | 0.812 ± 0.077
VVVSGGGAGFWL | 0.728 ± 0.019
RKGRVLIMTYRK | 0.682 ± 0.051
DRPRPLPTPLPP | 0.5905 ± 0.0021
PPPPTPHRSPLL | 0.598 ± 0.029
GGGGGGGEWVGG | 0.656 ± 0.05
VASPAPALRPPL | 0.746 ± 0.093
PPPSPPSPHAPP | 0.643 ± 0.1
PPPPPAPPLSLP | 0.61 ± 0.01
PCRANRRLVTSP | 0.628 ± 0.056
PFPPRPPSDRIR | 0.659 ± 0.088
PRPRLPVLPSPS | 0.641 ± 0.098
DLSLQSLRSPIT | 0.672 ± 0.022
SPRSATAPPPLP | 0.71 ± 0.028
IITAARGDTLSR | 0.706 ± 0.018
SGEKKPTKGTRT | 0.57 ± 0.055
GRVPSPDIGLPA | 0.672 ± 0.022
SWLGGIGGNEMV | 0.726 ± 0.011
LLGPSGRAIKIQ | 0.6659 ± 0.0013
MPRSGRLSSRKE | 0.718 ± 0.023
GKHIAEMGNRKN | 0.716 ± 0.074
GDGVIVEVEGVN | 0.675 ± 0.071
DPHRTRPRITLP | 0.715 ± 0.044

Sequence | protein stability index
KNSNIDKMIRKE | 0.6973 ± 0.0012
LLLWCRGGLLGS | 0.753 ± 0.024
FLSFIALLPFTS | 0.6748 ± 0.0021
LFSVLLFFFFHL | 0.522 ± 0.069
KNKTRSEISKNS | 0.6974 ± 0.0017
VGGGGAVDGRSG | 0.7298 ± 0.0025
TMLIGTAQAVNN | 0.604 ± 0.026
FCVQRWWGEGGH | 0.6176 ± 0.0017
LSLPSPRPPPSP | 0.713 ± 0.063
PLTPPLPPSPPP | 0.711 ± 0.026
LAKVNSLLGFSK | 0.734 ± 0.037
YINRKKKKINKT | 0.675 ± 0.066
KIKKKKKNTKTK | 0.666 ± 0.047
RVGGRVSGGGGL | 0.654 ± 0.027
IVLGPHNFLTIL | 0.676 ± 0.018
KAAQREVDLLVT | 0.668 ± 0.021
VFRPFVLPLMFP | 0.611 ± 0.053
LKSYHKLKTCSS | 0.678 ± 0.061
FKCWAGVRCGMV | 0.611 ± 0.013
IFWVGLSYVAEQ | 0.65 ± 0.0084
KRNSLSLIPQII | 0.655 ± 0.071
NPTDIAINTGIS | 0.742 ± 0.0081
RKGEASRVRWSE | 0.668 ± 0.061
PPLSAPPPSPSP | 0.702 ± 0.065
SAPQPPFPFPPS | 0.696 ± 0.0093

Sequence | protein stability index
KRSGEGREKIRK | 0.703 ± 0.028
PVSVCADRPPAP | 0.715 ± 0.063
VDWVEAYVCVGV | 0.538 ± 0.024
AETESASRCLHW | 0.776 ± 0.026
SIRLGGSVVELV | 0.694 ± 0.041
GCVHDLGVISCQ | 0.639 ± 0.011
DSVFTKALEPAW | 0.722 ± 0.04
DLGIFVSQQIEV | 0.6065 ± 0.0048
PFFSFLYPRFYF | 0.682 ± 0.0096
AMFFAFSRSLMS | 0.639 ± 0.026
SSPHRPTPSWPP | 0.564 ± 0.0069
PGGLSCPSPPTI | 0.676 ± 0.057
FPGLFLFVLLPG | 0.505 ± 0.013
GSGKHVGYIRVK | 0.656 ± 0.0082
LRDLLVFCDLFR | 0.695 ± 0.0082
STAKTARRKREK | 0.671 ± 0.0094
YDVLGLFPICKW | 0.729 ± 0.06
TKWAISRLHNSA | 0.64 ± 0.012
VIPSCMVFSSTG | 0.71 ± 0.049
LWWASRLRVPTP | 0.674 ± 0.093
KRIGLGEERQKR | 0.57 ± 0.078
IKKNKQNKIKRN | 0.699 ± 0.016
IACGAGGRGFSC | 0.721 ± 0.025
VYDASLPIRFFL | 0.697 ± 0.013
DASLTSGVARST | 0.67 ± 0.042

Sequence | protein stability index
SFVDDILVRPIA | 0.715 ± 0.05
PPSPRPVPPPCH | 0.705 ± 0.072
SRSPPRSGVPPL | 0.716 ± 0.032
VWIGMSLSSLVM | 0.512 ± 0.011
DVGSPFSISVQS | 0.647 ± 0.045
PPTPPPPLPSSF | 0.77 ± 0.075
SYPPLLPQLPPP | 0.678 ± 0.062
ATLGTVTLAFSV | 0.634 ± 0.044
TPPCACTPPRAP | 0.686 ± 0.081
RASQRGVRGGGG | 0.666 ± 0.02
LYCLVEGVYTLI | 0.662 ± 0.06
PQSVMFFGAPVW | 0.687 ± 0.034
EKIRSARKKTIH | 0.735 ± 0.0082
EIPGPLALSPAG | 0.736 ± 0.015
PSPSSPLPPPPP | 0.794 ± 0.035
NKARVDCNRSRC | 0.781 ± 0.2
CYIFFFSRELFY | 0.5685 ± 0.0045
GKEGKGEAGIGE | 0.686 ± 0.024
WLVRHLGFVPWI | 0.7 ± 0.028
VFARKARGFDDV | 0.7188 ± 0.0065
KNGLERFTSNRS | 0.641 ± 0.051
DSAWSWTLLFVG | 0.63 ± 0.026
AGPPRTAVSPPL | 0.675 ± 0.016
QVHNTEICVPLV | 0.679 ± 0.013
PPPPLPATPGAS | 0.6857 ± 0.0018

Sequence | protein stability index
GGEWGDRRKSGV | 0.647 ± 0.059
TRHPGGERIPTY | 0.743 ± 0.12
KNRKTQSNQTKI | 0.719 ± 0.025
FFFPGLLVPLFP | 0.727 ± 0.025
LSPGCLFLLPFL | 0.701 ± 0.066
CAVLGGGGVWGA | 0.596 ± 0.035
LEGGACFGVCEW | 0.6956 ± 0.0048
ERGAEGKKEPEK | 0.6534 ± 0.0061
PPPPPHPALPVP | 0.734 ± 0.016
GPGTSSVARPVS | 0.735 ± 0.07
SGSWRFYPSTTC | 0.706 ± 0.056
GSNCQVRMSIHR | 0.703 ± 0.011
EGYRDMAFKLCK | 0.697 ± 0.0093
LWVGGKRREVMG | 0.706 ± 0.032
LATIPTFPPLPP | 0.634 ± 0.089
PPHLPPSLSVLP | 0.663 ± 0.057
RVCSGYSRLRFA | 0.561 ± 0.085
VLVGWWGLGGGV | 0.642 ± 0.046
AILSDGLTHWGL | 0.736 ± 0.058
KDCGSVRQGLRY | 0.754 ± 0.04
IEESNKKIKNEI | 0.713 ± 0.032
SLFPSEPRPPSL | 0.719 ± 0.03
RIRPPPAPPPPP | 0.569 ± 0.019
RKKFKKQKKKNI | 0.703 ± 0.073
CPPARLLPHPPA | 0.733 ± 0.013

Sequence | protein stability index
VSTRSTVVVSSL | 0.662 ± 0.02
LSPDSLGVLVEY | 0.6272 ± 0.0058
PSAFQCQWKTSA | 0.6383 ± 0.0014
GLGQGVGWPWAV | 0.678 ± 0.024
LLRTHTTPKLGG | 0.661 ± 0.051
GSVEGVLWSGVL | 0.711 ± 0.031
RKKREKKGRRGK | 0.668 ± 0.0068
RLKFCLSICLAP | 0.7321 ± 0.003
FTPSSLRGSLLA | 0.687 ± 0.021
DAWRAGESTEGG | 0.71 ± 0.027
HVSINERFKSMY | 0.717 ± 0.025
FPVLFSCGYFPL | 0.792 ± 0.04
LPASPGSVPFLF | 0.716 ± 0.084
PSPPRKHAPFRP | 0.737 ± 0.0085
QHHDPYPHQRSP | 0.686 ± 0.023
PIGLCLYNSPRF | 0.662 ± 0.035
RGGARGRQGCGG | 0.765 ± 0.034
SLMRRFRGQWRV | 0.71 ± 0.06
SIKKFRTRKRRR | 0.67 ± 0.12
YIGLPVSALTIF | 0.574 ± 0.1
RVTPGLSIFFWP | 0.729 ± 0.0094
LFLCSGWVACWW | 0.498 ± 0.013
KDTGTNKASRGQ | 0.67 ± 0.014
LRNWIGGTLGGG | 0.7 ± 0.0095
PRFSFSGLPLPP | 0.681 ± 0.11

Sequence | protein stability index
CRKPRPLSFPLV | 0.701 ± 0.043
SPPRPPPVPPPP | 0.617 ± 0.054
SLSGSPIPFIRL | 0.764 ± 0.072
TSQASIRDLTNK | 0.579 ± 0.016
PRGFVHLPPPYT | 0.756 ± 0.12
GVGCGGACRPVG | 0.662 ± 0.09
PLPPLLPPSPPP | 0.767 ± 0.0085
LFRPNWLPLSNN | 0.634 ± 0.018
VGPCGGVGHLGS | 0.73 ± 0.036
WDYQGIIFVAGG | 0.687 ± 0.0075
VRQRADSCEAHA | 0.659 ± 0.056
IYFRILKKRSKT | 0.639 ± 0.02
FSLHTSLLPSVP | 0.787 ± 0.14
VVVARGGEEGWW | 0.656 ± 0.12
SHVPLAKLSLFP | 0.756 ± 0.024
SYSGLLEALTTL | 0.737 ± 0.032
HISRTLVDADIG | 0.66928 ± 8e-05
GLMITSARYVGF | 0.641 ± 0.012
WDSPVMCVTIID | 0.628 ± 0.0094
VLSLPLPSLSLN | 0.725 ± 0.18
GGGGLKVVGGGS | 0.661 ± 0.032
